Here are results for two molecules from article PMC3807213 (Journal of molecular biology, 2012).

B1: EcoP15I modification (Mod) subunit (enzyme, UniProt P12364 1-644, looked up)
chain: MKKETIFSEVETANSKQLAVLKANFPQCFDKNGAFIQEKLLEIIRASEVELSKESYSLNWLGKSYARLLANLPPKTLLAEDKTHNQQEENKNSQHLLIKGDNLEVLKHMVNAYAEKVKMIYIDPPYNTGKDGFVYNDDRKFTPEQLSELAGIDLDEAKRILEFTTKGSSSHSAWLTFIYPRLYIARELMREDGTIFISIDHNEFSQLKLVCDEIFGEQNHVGDLVWKNATDNNPSNIAVEHEYIIVYTKNKEQLISEWKSNISDVKNLLVNIGEEFASKYTGNELQEKYTQWFREHRSELWPLDRYKYIDKDGIYTGSQSVHNPGKEGYRYDIIHPKTKKPCKQPLMGYRFPLDTMDRLLSEEKIIFGDDENKIIELKVYAKDYKQKLSSVIHLDGRVATNELKELFPEMTQPFTNAKTIKLVEDLISFACDGEGIVLDFFAGSGTTAHTVFNLNNKNKTSYQFITVQLDEPTKDKSDAMKHGYNTIFDLTKERLIRASKKNRDQGFKVYQLMPDFRAKDESELTLSNHTFFDDVVLTPEQYDTLLTTWCLYDGSLLTTPIEDVDLGGYKAHLCDGRLYLIAPNFTSEALKALLQKVDSDKDFAPNKVVFYGSNFESAKQMELNEALKSYANKKSIELDLVVRN

Series [1] concerns the molecule itself. Put plainly: AUC.
Series [2] deals with B1. In words: AUC + other: dynamic light scattering.

For B1, the “stoichiometry N” value in series [1] was 2.

B2: EcoP15I restriction (Res) subunit (enzyme, UniProt Q5ZND2 1-970, looked up)
chain: MSKGFTLEKNLPHQKAGVDAVMNVFVSATPHLTDNVAVRLLANPELKLSEQQYYNNIKNVQAFNGIAHSKDNHNAKSNIIDVSMETGTGKTYTYIKTIFDLNKSFGINKFIIIVPTLSIKAGTVNFLKSDALKEHFRDDYKRELRTYVVESQKNAGKNTKSYMPQAIHDFVEASNFNKKYIHVLVINSGMINSKSLTDTYDTGLLDNQFNTPVDALRAVKPFIIIDEPHRFPTGKKTWENIEKFNAQYIIRYGATFSEGYKNLVYRLTAVDAFNDDLVKGIDAYIEDIVGDGNANLKFVKSDGKEATFELNENNNKKSFKLAKGESLSKTHSAIHDLTLDALNKSTAVLSNGIELKIGSSINPYSYDQTLADNMMRKAVKEHFKLEKELLTQRPRIKPLTLFFIDDIEGYRDGNDISGSLKTKFEEYVLAEANELLKTEQDAFYKNYLEKTVTNISSVHGGYFSKDNSDKDDKIEQEINEILHDKELLLSLDNPRRFIFSKWTLREGWDNPNVFQICKLRSSGSTTSKLQEVGRGLRLPVNEYMCRVKDRNFTLKYYVDFTEKDFVDSLVKEVNESSFKERVPSKFTQELKEQIMAQYPELSSRALMNELFNDEIIDDNDNFKDSDAYSRLKSKYPAAFPIGVKPGKIKKATDGKRRTKMRVGKFSELKELWDLINQKAVIEYKINSESEFLSIFKSFMLEETERFTKSGVHTRIDKIYIHNDMAMSKSIVSDDDDFAKLNTMSYREFLDNLSQTIFVKHGTLHKVFCDIKDTINITEYLNIQTIRKIKSGFSKYLLNNSFNKFSLGYNLISGSIHPTKFTNADGNPLGEVLSSDLGVLQDNAKAPLDTYLFEEVFYDSELERRNITDREIQSVVVFSKIPKNSIKIPVAGGYTYSPDFAYVVKTAEGDYLNFIIETKNVDSKDSLRLEEKRKIEHAQALFNQISQSVKVEFRTQFANDDIYQLIKSALP
Turning to B2, the “stoichiometry N” value in series [2] was 1 Res per Mod (2:2).

The stoichiometry N is the number of molecules, sites or subunits per partner or assembly.
